T1: ADAMTS5 (human, UniProt Q9UNA0 262-622, limits assumed)
T1 sequence (looked up): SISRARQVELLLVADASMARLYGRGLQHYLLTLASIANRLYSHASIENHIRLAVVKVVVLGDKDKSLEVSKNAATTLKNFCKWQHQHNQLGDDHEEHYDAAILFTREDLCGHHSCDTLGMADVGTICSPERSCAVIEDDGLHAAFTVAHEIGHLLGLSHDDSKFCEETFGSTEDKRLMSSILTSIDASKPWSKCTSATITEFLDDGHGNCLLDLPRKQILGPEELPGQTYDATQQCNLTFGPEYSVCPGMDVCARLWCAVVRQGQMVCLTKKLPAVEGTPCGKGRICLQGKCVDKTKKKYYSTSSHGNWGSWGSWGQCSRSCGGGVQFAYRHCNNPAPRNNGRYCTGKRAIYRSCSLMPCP

T2: MMP2 (human, UniProt P08253 110-660, limits assumed)
T2 sequence (looked up): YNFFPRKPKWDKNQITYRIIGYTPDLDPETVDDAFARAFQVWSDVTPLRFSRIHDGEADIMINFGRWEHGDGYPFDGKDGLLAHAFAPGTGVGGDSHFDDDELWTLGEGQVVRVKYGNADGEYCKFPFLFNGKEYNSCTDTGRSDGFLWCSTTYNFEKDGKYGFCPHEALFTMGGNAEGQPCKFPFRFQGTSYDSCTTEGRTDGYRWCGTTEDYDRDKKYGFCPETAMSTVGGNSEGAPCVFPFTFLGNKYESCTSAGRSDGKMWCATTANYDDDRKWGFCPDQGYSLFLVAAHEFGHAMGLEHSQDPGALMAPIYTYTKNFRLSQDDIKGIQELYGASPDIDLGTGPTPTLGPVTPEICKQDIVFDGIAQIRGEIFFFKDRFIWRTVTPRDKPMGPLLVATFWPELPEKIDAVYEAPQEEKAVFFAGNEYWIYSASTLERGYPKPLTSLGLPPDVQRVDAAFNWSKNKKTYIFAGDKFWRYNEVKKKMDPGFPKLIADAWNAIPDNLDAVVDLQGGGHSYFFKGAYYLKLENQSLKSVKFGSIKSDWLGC

T3: Cathepsin G (UniProt P08311 21-244)
T3 sequence (looked up): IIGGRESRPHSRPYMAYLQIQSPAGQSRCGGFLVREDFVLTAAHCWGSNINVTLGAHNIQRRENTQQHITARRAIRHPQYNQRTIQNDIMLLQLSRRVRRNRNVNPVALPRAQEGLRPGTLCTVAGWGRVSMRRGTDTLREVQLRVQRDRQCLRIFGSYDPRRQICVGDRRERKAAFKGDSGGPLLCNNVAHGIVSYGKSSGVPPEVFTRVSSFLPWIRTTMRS

T4: MMP7 (UniProt P09237 95-267, limits assumed)
T4 sequence (looked up): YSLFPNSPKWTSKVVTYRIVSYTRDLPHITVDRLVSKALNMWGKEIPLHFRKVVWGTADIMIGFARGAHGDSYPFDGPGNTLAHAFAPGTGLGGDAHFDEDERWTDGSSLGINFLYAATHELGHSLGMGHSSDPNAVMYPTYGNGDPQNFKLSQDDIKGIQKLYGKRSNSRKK

T5: ADAMTS4 (human, UniProt O75173 213-685, limits assumed)
T5 sequence (looked up): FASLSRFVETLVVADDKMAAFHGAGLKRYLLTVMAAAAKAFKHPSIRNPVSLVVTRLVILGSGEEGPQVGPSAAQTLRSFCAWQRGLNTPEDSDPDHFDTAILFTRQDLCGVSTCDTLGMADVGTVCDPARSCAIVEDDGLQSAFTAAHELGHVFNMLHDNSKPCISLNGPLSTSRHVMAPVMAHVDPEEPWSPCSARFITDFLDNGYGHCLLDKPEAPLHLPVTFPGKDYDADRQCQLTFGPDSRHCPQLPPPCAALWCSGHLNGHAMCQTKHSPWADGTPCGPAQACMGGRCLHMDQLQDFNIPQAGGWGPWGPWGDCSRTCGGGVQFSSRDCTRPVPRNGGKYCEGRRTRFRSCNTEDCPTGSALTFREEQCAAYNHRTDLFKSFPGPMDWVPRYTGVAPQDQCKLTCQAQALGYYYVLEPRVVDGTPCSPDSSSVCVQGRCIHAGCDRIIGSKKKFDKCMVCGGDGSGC

T6: MMP1 (human, UniProt P03956 100-469, limits assumed)
T6 sequence (looked up): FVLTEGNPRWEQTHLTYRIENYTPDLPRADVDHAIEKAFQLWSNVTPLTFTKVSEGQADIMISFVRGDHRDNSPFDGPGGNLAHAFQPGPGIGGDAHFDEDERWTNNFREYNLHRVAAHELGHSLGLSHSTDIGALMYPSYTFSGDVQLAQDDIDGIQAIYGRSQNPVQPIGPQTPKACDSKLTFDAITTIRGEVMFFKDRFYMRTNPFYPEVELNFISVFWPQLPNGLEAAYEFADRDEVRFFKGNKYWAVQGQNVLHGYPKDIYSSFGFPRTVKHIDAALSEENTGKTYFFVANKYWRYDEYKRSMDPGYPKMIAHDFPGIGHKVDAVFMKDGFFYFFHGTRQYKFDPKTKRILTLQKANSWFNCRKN

B1: Variant A2M, bait region SEQ ID NO 9 (other)
chain: SVSGKPQYMVLVPSLLHTETTEKGCVLLSYLNETVTVSASLESVRGNRSLFTDLEAENDVLHCVAFAVPKSSSNEEVMFLTVQVKGPTQEFKKRTTVMVKNEDSLVFVQTDKSIYKPGQTVKFRVVSMDENFHPLNELIPLVYIQDPKGNRIAQWQSFQLEGGLKQFSFPLSSEPFQGSYKVVVQKKSGGRTEHPFTVEEFVLPKFEVQVTVPKIITILEEEMNVSVCGLYTYGKPVPGHVTVSICRKYSDASDCHGEDSQAFCEKFSGQLNSHGCFYQQVKTKVFQLKRKEYEMKLHTEAQIQEEGTVVELTGRQSSEITRTITKLSFVKVDSHFRQGIPFFGQVRLVDGKGVPIPNKVIFIRGNEANYYSNATTDEHGLVQFSINTTNVMGTSLTVRVNYKDRSPCYGYQWVSEEHEEAHHTAYLVFSPSKSFVHLEPMSHELPCGHTQTVQAHYILNGGTLLGLKKLSFYYLIMAKGGIVRTGTHGLLVKQEDMKGHFSISIPVKSDIAPVARLLIYAVLPTGDVIGDSAKYDVENCLANKVDLSFSPSQSLPASHAHLRVTAAPQSVCALRAVDQSVLLMKPDAELSASSVYNLLPEKDLTGFPGPLNDQDDEDCINRHNVYINGITYTPVSSTNEKDMYSFLEDMGLKAFTNSKIRKPKMCPQLEHGPEGEGEGEGIPENFFGVPRYLSEDLVVQISELEGRGSVEEPHTKLRKYFPETWIWDLVVVNSAGVAEVGVTVPDTITEWKAGAFCLSEDAGLGISSTASLRAFQPFFVELTMPYSVIRGEAFTLKATVLNYLPKCIRVSVQLEASPAFLAVPVEKEQAPHCICANGRQTVSWAVTPKSLGNVNFTVSAEALESQELCGTEVPSVPEHGRKDTVIKPLLVEPEGLEKETTFNSLLCPSGGEVSEELSLKLPPNVVEESARASVSVLGDILGSAMQNTQNLLQMPYGCGEQNMVLFAPNIYVLDYLNETQQLTPEIKSKAIGYLNTGYQRQLNYKHYDGSYSTFGERYGRNQGNTWLTAFVLKTFAQARAYIFIDEAHITQALIWLSQRQKDNGCFRSSGSLLNNAIKGGVEDEVTLSAYITIALLEIPLTVTHPVVRNALFCLESAWKTAQEGDHGSHVYTKALLAYAFALAGNQDKRKEVLKSLNEEAVKKDNSVHWERPQKPKAPVGHFYEPQAPSAEVEMTSYVLLAYLTAQPAPTSEDLTSATNIVKWITKQQNAQGGFSSTQDTVVALHALSKYGAATFTRTGKAAQVTIQSSGTFSSKFQVDNNNRLLLQQVSLPELPGEYSMKVTGEGCVYLQTSLKYNILPEKEEFPFALGVQTLPQTCDEPKAHTSFQISLSVSYTGSRSASNMAIVDVKMVSGFIPLKPTVKMLERSNHVSRTEVSSNHVLIYLDKVSNQTLSLFFTVLQDVPVRDLKPAIVKVYDYYETDEFAIAEYNAPCSKDLGNADYKDDDDKGASHHHHHH
B2: Variant A2M, bait region SEQ ID NO 30 (other)
chain: SVSGKPQYMVLVPSLLHTETTEKGCVLLSYLNETVTVSASLESVRGNRSLFTDLEAENDVLHCVAFAVPKSSSNEEVMFLTVQVKGPTQEFKKRTTVMVKNEDSLVFVQTDKSIYKPGQTVKFRVVSMDENFHPLNELIPLVYIQDPKGNRIAQWQSFQLEGGLKQFSFPLSSEPFQGSYKVVVQKKSGGRTEHPFTVEEFVLPKFEVQVTVPKIITILEEEMNVSVCGLYTYGKPVPGHVTVSICRKYSDASDCHGEDSQAFCEKFSGQLNSHGCFYQQVKTKVFQLKRKEYEMKLHTEAQIQEEGTVVELTGRQSSEITRTITKLSFVKVDSHFRQGIPFFGQVRLVDGKGVPIPNKVIFIRGNEANYYSNATTDEHGLVQFSINTTNVMGTSLTVRVNYKDRSPCYGYQWVSEEHEEAHHTAYLVFSPSKSFVHLEPMSHELPCGHTQTVQAHYILNGGTLLGLKKLSFYYLIMAKGGIVRTGTHGLLVKQEDMKGHFSISIPVKSDIAPVARLLIYAVLPTGDVIGDSAKYDVENCLANKVDLSFSPSQSLPASHAHLRVTAAPQSVCALRAVDQSVLLMKPDAELSASSVYNLLPEKDLTGFPGPLNDQDDEDCINRHNVYINGITYTPVSSTNEKDMYSFLEDMGLKAFTNSKIRKPKMCPQLEQYEMHGPEGEGEGPRYLTAIPENFFGVSEDLVVQISELEGRGSPHTKLRKYFPETWIWDLVVVNSAGVAEVGVTVPDTITEWKAGAFCLSEDAGLGISSTASLRAFQPFFVELTMPYSVIRGEAFTLKATVLNYLPKCIRVSVQLEASPAFLAVPVEKEQAPHCICANGRQTVSWAVTPKSLGNVNFTVSAEALESQELCGTEVPSVPEHGRKDTVIKPLLVEPEGLEKETTFNSLLCPSGGEVSEELSLKLPPNVVEESARASVSVLGDILGSAMQNTQNLLQMPYGCGEQNMVLFAPNIYVLDYLNETQQLTPEIKSKAIGYLNTGYQRQLNYKHYDGSYSTFGERYGRNQGNTWLTAFVLKTFAQARAYIFIDEAHITQALIWLSQRQKDNGCFRSSGSLLNNAIKGGVEDEVTLSAYITIALLEIPLTVTHPVVRNALFCLESAWKTAQEGDHGSHVYTKALLAYAFALAGNQDKRKEVLKSLNEEAVKKDNSVHWERPQKPKAPVGHFYEPQAPSAEVEMTSYVLLAYLTAQPAPTSEDLTSATNIVKWITKQQNAQGGFSSTQDTVVALHALSKYGAATFTRTGKAAQVTIQSSGTFSSKFQVDNNNRLLLQQVSLPELPGEYSMKVTGEGCVYLQTSLKYNILPEKEEFPFALGVQTLPQTCDEPKAHTSFQISLSVSYTGSRSASNMAIVDVKMVSGFIPLKPTVKMLERSNHVSRTEVSSNHVLIYLDKVSNQTLSLFFTVLQDVPVRDLKPAIVKVYDYYETDEFAIAEYNAPCSKDLGNADYKDDDDKGASHHHHHH

What was measured:
Assay in all cases: cell-based or functional assay
MMP3 = MMP3 (human, UniProt P08254 100-477, limits assumed)
MMP13 = MMP13 (human, UniProt P45452 104-471, limits assumed)
Elastase = target: Elastase
ADAMTS5 = target: T1, ADAMTS5
MMP2 = target: T2, MMP2
Cathepsin G = target: T3, Cathepsin G
MMP7 = target: T4, MMP7
MMP8 = MMP8 (human, UniProt P22894 101-467, limits assumed)
ADAMTS4 = target: T5, ADAMTS4
MMP1 = target: T6, MMP1
MMP9 = MMP9 (human, UniProt P14780 107-707, limits assumed)
Sequence of MMP9 (P14780 107-707 limits assumed): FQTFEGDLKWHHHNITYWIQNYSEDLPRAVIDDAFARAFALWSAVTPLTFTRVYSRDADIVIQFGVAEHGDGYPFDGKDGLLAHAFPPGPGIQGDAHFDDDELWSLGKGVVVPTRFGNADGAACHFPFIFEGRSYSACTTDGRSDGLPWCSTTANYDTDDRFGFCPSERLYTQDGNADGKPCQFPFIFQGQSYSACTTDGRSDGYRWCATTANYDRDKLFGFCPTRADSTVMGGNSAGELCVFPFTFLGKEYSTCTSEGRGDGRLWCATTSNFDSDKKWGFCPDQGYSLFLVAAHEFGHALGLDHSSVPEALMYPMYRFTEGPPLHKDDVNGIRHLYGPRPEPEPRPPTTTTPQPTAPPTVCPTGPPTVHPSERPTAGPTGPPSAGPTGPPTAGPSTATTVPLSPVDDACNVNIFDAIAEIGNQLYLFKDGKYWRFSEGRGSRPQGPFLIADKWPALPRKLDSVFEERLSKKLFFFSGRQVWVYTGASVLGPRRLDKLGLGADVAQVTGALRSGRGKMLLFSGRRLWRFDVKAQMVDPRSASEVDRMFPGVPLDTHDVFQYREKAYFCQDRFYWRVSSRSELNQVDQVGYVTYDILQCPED

Sequence of MMP8 (P22894 101-467 limits assumed): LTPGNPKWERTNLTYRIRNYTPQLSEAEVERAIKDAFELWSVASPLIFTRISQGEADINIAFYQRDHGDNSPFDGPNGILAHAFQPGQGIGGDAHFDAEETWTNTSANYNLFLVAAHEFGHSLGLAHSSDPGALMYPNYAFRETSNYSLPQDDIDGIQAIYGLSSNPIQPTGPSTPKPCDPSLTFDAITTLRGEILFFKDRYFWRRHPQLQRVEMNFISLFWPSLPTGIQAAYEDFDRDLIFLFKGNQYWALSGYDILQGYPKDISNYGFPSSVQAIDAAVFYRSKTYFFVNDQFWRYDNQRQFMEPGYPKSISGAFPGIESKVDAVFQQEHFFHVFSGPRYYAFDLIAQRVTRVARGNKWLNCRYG
Sequence of MMP3 (P08254 100-477 limits assumed): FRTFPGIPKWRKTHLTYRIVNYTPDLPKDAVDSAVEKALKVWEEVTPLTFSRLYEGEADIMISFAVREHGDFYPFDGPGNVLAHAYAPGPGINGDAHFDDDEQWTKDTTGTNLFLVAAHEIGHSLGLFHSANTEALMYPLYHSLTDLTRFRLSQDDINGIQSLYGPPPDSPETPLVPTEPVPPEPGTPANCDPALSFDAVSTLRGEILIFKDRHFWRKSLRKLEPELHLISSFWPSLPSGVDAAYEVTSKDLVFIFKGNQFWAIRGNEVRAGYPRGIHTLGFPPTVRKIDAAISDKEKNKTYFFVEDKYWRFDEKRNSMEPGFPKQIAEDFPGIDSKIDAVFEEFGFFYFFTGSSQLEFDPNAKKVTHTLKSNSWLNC

Row | Binder | Protease Inhibition (% of WT) (MMP3) | Protease Inhibition (% of WT) (MMP13) | Protease Inhibition (% of WT) (Elastase) | Protease Inhibition (% of WT) (ADAMTS5) | Protease Inhibition (% of WT) (MMP2) | Protease Inhibition (% of WT) (Cathepsin G) | Protease Inhibition (% of WT) (MMP7) | Protease Inhibition (% of WT) (MMP8) | Protease Inhibition (% of WT) (ADAMTS4) | Protease Inhibition (% of WT) (MMP1) | Protease Inhibition (% of WT) (MMP9)
1 | B1 | 27 % of WT | 88 % of WT | 93 % of WT | 145 % of WT | 27 % of WT | 66 % of WT | 80 % of WT | 33 % of WT | 124 % of WT | 67 % of WT | 20 % of WT
2 | B2 | < 100 % of WT | 96 % of WT | 55 % of WT | 296 % of WT | 3 % of WT | 104 % of WT | 91 % of WT | 29 % of WT | 93 % of WT | 67 % of WT | 18 % of WT
